Data taken from PMC3726526, “Structural and Functional Characterization of the Recombinant Death Domain from Death-Associated Protein Kinase” (PLoS ONE, 2013).

B1: GB1-DAPk-DD(S) (domain or fragment, human, UniProt P53355 1293-1399, looked up)
chain: QASLGMDIHASDLNLLTRRKLSRLLDPPDPLGKDWCLLAMNLGLPDLVAKYNTSNGAPKDFLPSPLHALLREWTTYPESTVGTLMSKLRELGRRDAADFLLKASSVF
notes: death domain region of human death-associated protein kinase (DAPk, DAPK1), residues 1293-1399; Cloned between BamHI and XhoI of plasmid GEV2; all experiments were done with the intact GB1 fusion (thrombin not used); Predicted monomer mass 19.6 kDa; By the primers the XhoI site should add Leu-Glu before the His6 tag (surmised); also called short GB1-DAPk-DD construct; full-length DAPk-DD (short …)
B2: GB1-DAPk-DD(L) (domain or fragment, human, UniProt P53355 1293-1408, looked up)
chain: QASLGMDIHASDLNLLTRRKLSRLLDPPDPLGKDWCLLAMNLGLPDLVAKYNTSNGAPKDFLPSPLHALLREWTTYPESTVGTLMSKLRELGRRDAADFLLKASSVFKINLDGNGQ
notes: death domain region of human death-associated protein kinase (DAPk, DAPK1) with a nine-residue C-terminal extension from the Ser-rich tail, residues 1293-1408; Made by mutagenesis of a GEV vector holding residues 1293-1431; intact GB1 fusion in all experiments; Predicted monomer mass 20.6 kDa; also called long GB1-DAPk-DD construct; full-length DAPk-DD (long variant); source: E. coli BL21 codon …

Molecular target: T1, GST-ERK2 (extracellular-regulated kinase-2) (human, UniProt P28482 1-360)
T1 construct: full length human ERK2 in pGEX-6-P3, N-terminal GST with a PreScission protease site; The methods and results of the ITC say 'ERK2'; the discussion says that the ITC and CD were done with GST-ERK2; source: E. coli BL21 codon plus; in cell lysate, held on glutathione beads (pull-down); large scale production as previously described [25]; (ITC); not shown: GST, N-terminal, kept
T1 sequence (P28482 whole entry): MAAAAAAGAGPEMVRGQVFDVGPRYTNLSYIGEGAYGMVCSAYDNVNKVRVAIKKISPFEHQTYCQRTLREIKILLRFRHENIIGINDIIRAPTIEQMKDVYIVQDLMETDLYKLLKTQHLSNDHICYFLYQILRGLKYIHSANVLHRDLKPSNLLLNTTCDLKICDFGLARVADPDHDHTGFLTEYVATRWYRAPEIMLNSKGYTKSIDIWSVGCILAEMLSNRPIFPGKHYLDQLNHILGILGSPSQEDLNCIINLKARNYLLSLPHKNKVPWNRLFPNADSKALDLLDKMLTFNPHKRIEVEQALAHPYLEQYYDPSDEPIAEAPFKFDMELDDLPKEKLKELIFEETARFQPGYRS
Assay: ITC; VP-ITC, 25 C; 19 injections of 15 ul of 159 uM GB1-DAPk-DD(L) or 250 uM GB1-DAPk-DD(S) into 1.45 ml of 8.85-18.6 uM ERK2; 50 mM HEPES pH 7.5, 50 mM NaCl, 1 mM TCEP, 1 mM EDTA
Conditions: both partners purified

Row | Binder | Kd | dH | stoichiometry N
1 | B1 | 1770 nM | -12.7 kcal/mol | 0.97 ± 0.01
2 | B2 | 920 nM | -9.18 kcal/mol | 1.03 ± 0.01
